Assay [1] concerns the target UvrA. In words: BIACORE sensor chip (NTA), β domain immobilised, UvrA in solution, in the absence of ATP. (SPR reads the build-up and loss of mass on a sensor chip optically.)
Assay [2] addresses UvrA. Briefly: BIACORE sensor chip (NTA), β domain immobilised, UvrA in solution, in the presence of ATP.

Usually Kd stands for the concentration at which binding is half-saturated. As to “TRCF-β (β domain of Thermus thermophilus HB8 transcription-repair coupling factor), His-tagged”, the Kd amounted to 1300 nM with UvrA [1] and 500 nM with UvrA [2].

The values are drawn from patent US6939949B2.
